Data: patent US6699869

System: (D)FPR-PNA

bovine thrombin (from Sigma)
Kcat/KM of substrate hydrolysis: thrombin: Kcat/KM=2.20×10^7 M^-1 S^-1
